Source: US20200040059A1
Changes are numbered by the printed parent chain. Numbers in names are those of the source. Where “and” joins values, the source holds several entries; their conditions need not be identical. Equal values may be shown once.

B1: CD155 variant IgV-Fc V9L, P18F, T45A, S65A, S67V, R78K, L79V, F91S, T107M, S114T (Fc fusion, not shown: a dimerising Fc or GST; small tags and cut ends)
chain: PGTGDLVVQAPTQVFGFLGDSVTLPCYLQVPNMEVTHVSQLAWARHGESGSMAVFHQTQGPAYVESKRLEFVAAKVGAELRNASLRMSGLRVEDEGNYTCLFVMFPQGSRTVDIWL
B2: CD155 variant IgV-Fc P18L, K70E, L79P, F91S, V95A, G111R (Fc fusion, not shown: a dimerising Fc or GST; small tags and cut ends)
chain: WPPPGTGDVVVQAPTQVLGFLGDSVTLPCYLQVPNMEVTHVSQLTWARHGESGSMAVFHQTQGPSYSESERLEFVAARPGAELRNASLRMSGLRAEDEGNYTCLFVTFPQRSRSVDIWL
B3: CD155 variant IgV-Fc P18F, S65A, S67V, F91S, L104M, G111R (Fc fusion, not shown: a dimerising Fc or GST; small tags and cut ends)
chain: B2 chain with L18F, S65A, S67V, E70K, P79L, A95V, L104M
B4: CD155 variant IgV-Fc P18F, L79P, M90L, F91S, V95A, L104M, G111R (Fc fusion, not shown: a dimerising Fc or GST; small tags and cut ends)
chain: B2 chain with L18F, E70K, M90L, L104M
B5: CD155 variant IgV-Fc V9I, P18T, D23G, L79P, F91S, G111R (Fc fusion, not shown: a dimerising Fc or GST; small tags and cut ends)
chain: B2 chain with V9I, L18T, D23G, E70K, A95V
B6: CD155 variant IgV-Fc P18C, T26M, L44V, M55I, Q62K, L79P, F91S, L104M, T107M (Fc fusion, not shown: a dimerising Fc or GST; small tags and cut ends)
chain: B2 chain with L18C, T26M, L44V, M55I, Q62K, E70K, A95V, L104M, T107M, R111G
B7: CD155 variant IgV-Fc V9L, P18L, L79P, M90I, F91S, T102S, L104M, G111R (Fc fusion, not shown: a dimerising Fc or GST; small tags and cut ends)
chain: B2 chain with V9L, E70K, M90I, A95V, T102S, L104M
B8: CD155 variant IgV-Fc V9I, V10I, P18S, F20S, T45A, L79P, F91S, L104M, F108Y, G111R, S112V (Fc fusion, not shown: a dimerising Fc or GST; small tags and cut ends)
chain: B2 chain with V9I, V10I, L18S, F20S, T45A, E70K, A95V, L104M, F108Y, S112V
B9: CD155 variant IgV-Fc P18T, T45Q, T61R, S65N, S67L (Fc fusion, not shown: a dimerising Fc or GST; small tags and cut ends)
chain: PGTGDVVVQAPTQVTGFLGDSVTLPCYLQVPNMEVTHVSQLQWARHGESGSMAVFHQRQGPNYLESKRLEFVAARLGAELRNASLRMFGLRVEDEGNYTCLFVTFPQGSRSVDIWL
B10: CD155 P18T, F91S, F108L IgV-Fc (Fc fusion, not shown: a dimerising Fc or GST; small tags and cut ends)
chain: B9 chain with Q42T, R58T, N62S, L64S, F88S, F105L
B11: CD155 variant IgV-Fc P18T, D23G, Q60R, S67L, L79P, F91S, T107M, V115A (Fc fusion, not shown: a dimerising Fc or GST; small tags and cut ends)
chain: B9 chain with D20G, Q42T, Q57R, R58T, N62S, L76P, F88S, T104M, V112A
B12: CD155 L88P IgV-Fc (Fc fusion, not shown: a dimerising Fc or GST; small tags and cut ends)
chain: B9 chain with T15P, Q42T, R58T, N62S, L64S, L85P
B13: CD155 variant IgV-Fc P18S, H59R, A76G, R78S, L79P (Fc fusion, not shown: a dimerising Fc or GST; large carriers; small tags and cut ends)
chain: B9 chain with T15S, Q42T, H56R, R58T, N62S, L64S, A73G, R75S, L76P
B14: CD155 P18T, F91S IgV-Fc (Fc fusion, not shown: a dimerising Fc or GST; small tags and cut ends)
chain: B9 chain with Q42T, R58T, N62S, L64S, F88S
B15: CD155 P18T, F91S, G111D IgV-Fc (Fc fusion, not shown: a dimerising Fc or GST; small tags and cut ends)
chain: B9 chain with Q42T, R58T, N62S, L64S, F88S, G108D
B16: CD155 A56V IgV-Fc (Fc fusion, not shown: a dimerising Fc or GST; small tags and cut ends)
chain: B9 chain with T15P, Q42T, A53V, R58T, N62S, L64S

Assays:
CD112R (human) = CD112R (human) (UniProt Q6DKI7); experiment: flow cytometry, cells expressing target, 25 nM
CD226 (human) [1] = target: T1, CD226 (human) (UniProt Q15762); experiment: flow cytometry, cells expressing target, 25 nM
T1 sequence: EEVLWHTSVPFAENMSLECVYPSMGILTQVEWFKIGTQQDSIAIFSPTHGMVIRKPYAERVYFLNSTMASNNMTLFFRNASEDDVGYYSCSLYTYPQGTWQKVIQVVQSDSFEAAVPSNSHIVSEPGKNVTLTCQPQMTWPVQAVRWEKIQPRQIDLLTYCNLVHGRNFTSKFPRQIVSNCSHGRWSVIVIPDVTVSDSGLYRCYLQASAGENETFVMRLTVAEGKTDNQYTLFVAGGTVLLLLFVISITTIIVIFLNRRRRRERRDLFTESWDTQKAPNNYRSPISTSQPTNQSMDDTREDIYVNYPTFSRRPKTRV

CD96 [2] = target: T2, CD96 (UniProt P40200); experiment: flow cytometry, cells expressing target, 25 nM
T2 sequence (looked up): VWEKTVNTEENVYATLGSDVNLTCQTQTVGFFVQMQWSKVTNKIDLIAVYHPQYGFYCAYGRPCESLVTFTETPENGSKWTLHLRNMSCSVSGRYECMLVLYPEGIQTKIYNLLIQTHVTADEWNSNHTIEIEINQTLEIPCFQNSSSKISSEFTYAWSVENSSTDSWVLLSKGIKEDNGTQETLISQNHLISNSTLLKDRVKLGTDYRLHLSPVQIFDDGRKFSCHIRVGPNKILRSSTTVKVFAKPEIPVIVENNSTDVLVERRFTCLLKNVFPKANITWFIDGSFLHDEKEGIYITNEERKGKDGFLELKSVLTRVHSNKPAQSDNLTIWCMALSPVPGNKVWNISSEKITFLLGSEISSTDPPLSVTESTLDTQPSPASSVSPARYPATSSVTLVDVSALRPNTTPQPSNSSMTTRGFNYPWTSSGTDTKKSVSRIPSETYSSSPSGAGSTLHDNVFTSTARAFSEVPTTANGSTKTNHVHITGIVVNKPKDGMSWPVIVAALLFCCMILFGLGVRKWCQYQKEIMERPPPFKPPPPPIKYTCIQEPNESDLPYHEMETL

TIGIT (human) = target: T3, TIGIT (human) (UniProt Q495A1); experiment: flow cytometry, cells expressing target, 25 nM
T3 sequence: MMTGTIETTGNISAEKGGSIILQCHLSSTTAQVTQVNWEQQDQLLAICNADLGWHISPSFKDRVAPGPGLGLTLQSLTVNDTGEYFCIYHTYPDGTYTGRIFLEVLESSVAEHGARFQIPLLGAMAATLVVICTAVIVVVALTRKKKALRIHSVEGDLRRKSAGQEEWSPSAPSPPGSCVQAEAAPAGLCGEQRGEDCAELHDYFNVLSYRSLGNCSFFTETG

CD96 [3] = target: T2, CD96; experiment: flow cytometry, CD96-expressing cells
CD226 (human) [4] = target: T1, CD226 (human); experiment: flow cytometry, CD226-expressing cells
CD96 [5] = target: T2, CD96; experiment: flow cytometry, cells
CD226 (human) [6] = target: T1, CD226 (human); experiment: flow cytometry, transfected cells

Sequence of CD112R (human) (Q6DKI7 whole entry): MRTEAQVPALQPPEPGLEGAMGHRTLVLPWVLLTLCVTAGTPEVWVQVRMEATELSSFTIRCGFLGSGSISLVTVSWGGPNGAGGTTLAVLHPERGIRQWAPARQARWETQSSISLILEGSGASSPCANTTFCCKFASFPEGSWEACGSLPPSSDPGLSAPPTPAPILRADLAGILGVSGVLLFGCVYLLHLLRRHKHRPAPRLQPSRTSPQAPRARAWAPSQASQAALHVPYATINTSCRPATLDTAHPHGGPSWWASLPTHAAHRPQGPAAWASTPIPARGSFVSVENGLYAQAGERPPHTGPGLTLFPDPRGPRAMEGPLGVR

Binder | Fold Change from CD155-ECD (CD226 (human) [4]) | MFI at 11.1 nM (CD226 (human) [4]) | MFI (CD96 [5]) | MFI (CD226 (human) [6]) | also measured
B1 |  |  |  |  | MFI at 25 nM (CD112R (human)): 812 MFI; MFI at 25 nM (CD226 (human) [1]): 154000 MFI; MFI at 25 nM (CD96 [2]): 85600 MFI; MFI at 25 nM (TIGIT (human)): 130000 MFI
B2 | 0.07 fold | 1120 MFI |  |  | Fold Change from CD155-ECD (CD96 [3]): 0.06 fold; MFI at 11.1 nM (CD96 [3]): 973 MFI
B3 | 0.06 fold | 901 MFI |  |  | 
B4 | 0.06 fold and 0.07 fold | 917 MFI and 1070 MFI |  |  | 
B5 | 0.06 fold | 897 MFI |  |  | 
B6 | 0.06 fold | 973 MFI |  |  | 
B7 | 0.06 fold | 910 MFI |  |  | 
B8 | 0.06 fold | 973 MFI |  |  | Fold Change from CD155-ECD (CD96 [3]): 0.06 fold; MFI at 11.1 nM (CD96 [3]): 974 MFI
B9 |  |  |  |  | MFI at 100 nM (CD96 [3]): 22800 MFI
B10 |  |  | 193000 | 395000 | 
B11 |  |  |  |  | MFI at 25 nM (CD112R (human)): 874 MFI; MFI at 25 nM (CD226 (human) [1]): 30900 MFI; MFI at 25 nM (CD96 [2]): 109000 MFI; MFI at 25 nM (TIGIT (human)): 64100 MFI
B12 |  |  | 35300 | 65100 | 
B13 |  |  |  |  | MFI at 25 nM (CD112R (human)): 1010 MFI; MFI at 25 nM (CD226 (human) [1]): 79400 MFI; MFI at 25 nM (CD96 [2]): 44500 MFI; MFI at 25 nM (TIGIT (human)): 131000 MFI
B14 |  |  | 158000 | 401000 | 
B15 |  |  | 168000 | 438000 | 
B16 |  |  | 161000 | 455000 | 
